In paper PMC11325224, “Organophosphorus S-adenosyl-L-methionine mimetics: synthesis, stability, and substrate properties” (Frontiers in Chemistry, 2024):
Where a name gives a salt, the structure may show the parent alone.

How the values were obtained:
WBSCR27 = biological target: T1, WBSCR27 (Mus musculus, UniProt Q8BGM4); test: 1H, […] HSQC NMR titration; assay type: binding; settings: 15N-labelled apo protein 0.2 mM, ligand 1:1 to 1:5; cofactor site
T1 construct: gene Mettl27; recombinant, 15N-labelled; purification details only in supplement
T1 sequence (Q8BGM4 1-238): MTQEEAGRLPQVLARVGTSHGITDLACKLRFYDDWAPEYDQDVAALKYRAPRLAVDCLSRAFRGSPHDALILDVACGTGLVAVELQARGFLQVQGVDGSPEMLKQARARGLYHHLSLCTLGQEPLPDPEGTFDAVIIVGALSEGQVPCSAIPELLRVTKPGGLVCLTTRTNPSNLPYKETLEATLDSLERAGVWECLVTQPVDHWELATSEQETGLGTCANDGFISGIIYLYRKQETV

CI = tested on: T2, CI; test: Michaelis-Menten kinetics of SAH-PH methylation; assay type: biochemical, Arabidopsis thaliana; settings: co-substrate rac-SAH-PH
T2 construct: engineered variant V140T, recombinant; expression details only in supplement

C[S+](CCC(N)[PH](=O)O)C[C@H]1O[C@@H](n2cnc3c(N)ncnc32)[C@H](O)[C@@H]1O (mixture of isomers) [rac-SAM-PH, 5′-{S-[3-Amino-3-(hydrohydroxyphosphoryl)propy]-S-methylthionia}-5′-deoxyadenosine hydrochloride]
1H,15N HSQC NMR titration (WBSCR27): WBSCR27 strongly binds to SAM-P H

AtHMT^V140T (Arabidopsis thaliana; V140T)
Km (CI): 5.3 ± 3 mM
kcat (CI): 0.3 ± 0.033 s⁻¹
